Assay results as given in patent US20090099087A1 (STC UNM, published 2009).

Experiments:
human plasmin [1] = target: T1, human plasmin (human, UniProt P00747 97-810, limits assumed); experiment: chromogenic (S-2251) amidolytic inhibition assay, plasmin 30 nM
Procedure: Example I provides an illustrative example of assessment of the inhibitory activity. […] The chromogenic substrate S-2251 (D-Val-Leu-Lys-p-nitroanilide; DiaPharma Group Inc., West Chester, Ohio) was then added and residual plasmin amidolytic activity was measured at 405 nm in a Molecular Devices UVₘₐₓ kinetic microplate reader.
(§1) Trypsin and plasmin inhibition assays were performed as described elsewhere (Petersen et al., Biochemistry, 35:266-272, 1996). Briefly, trypsin and plasmin were incubated with various concentrations of inhibitor preparations for 15 minutes at 37° C. in a 96-well microtitration plate. The chromogenic substrate S-2251 was then added and residual amidolytic activity was measured in a Molecular Devices UVₘₐₓ kinetic microplate reader.

porcine trypsin [2] = target: T2, porcine trypsin (porcine, UniProt P00761 9-231); experiment: chromogenic (S-2251) amidolytic inhibition assay, trypsin 50 nM
Procedure: as §1

[3] = target: T3, factor VIIa-tissue factor complex (human recombinant factor VIIa with recombinant soluble human tissue factor) (human, UniProt P08709 61-466; P13726 33-251, limits assumed); experiment: chromogenic (S-2288) amidolytic inhibition assay, FVIIa 50 nM / soluble TF 100 nM
T3 construct: The complex was formed from 50 nM factor VIIa and 100 nM soluble tissue factor in 5 mM CaCl2; Factor VIIa is itself a two-chain enzyme; also called FVIIa-TF; VIIa-TF
Procedure: (§2) Recombinant soluble human tissue factor (100 nM) and factor VIIa (50 nM) were incubated in a TBS-BSA buffer/5 mM CaCl₂ for 15 minutes at 37° C. Following this incubation, aliquots (100 μl) were dispensed into a 96-well microtitration plate and treated with serial dilutions of inhibitors dissolved in TBS buffer. After 15 minutes of incubation, 30 μl of S-2288 (final concentration, 1 mM) was added to each well and the absorbance at 405 nm was determined as described earlier.

human plasmin [4] = target: T1, human plasmin; experiment: chromogenic amidolytic inhibition assay, plasmin; reference BPTI
Procedure: as §1

porcine trypsin [5] = target: T2, porcine trypsin; experiment: chromogenic amidolytic inhibition assay, trypsin; reference BPTI
Procedure: as §1

human plasmin [6] = target: T1, human plasmin; experiment: chromogenic amidolytic inhibition assay, plasmin; reference full-length TFPI-2
Procedure: as §1

porcine trypsin [7] = target: T2, porcine trypsin; experiment: chromogenic amidolytic inhibition assay, trypsin; reference full-length TFPI-2
Procedure: as §1

[8] = target: T3, factor VIIa-tissue factor complex …; experiment: chromogenic amidolytic inhibition assay, FVIIa-TF; reference wild-type KD1
Procedure: as §2

human plasmin [9] = target: T1, human plasmin; experiment: chromogenic amidolytic inhibition assay; reference wild-type KD1
Procedure: as §1, §2

porcine trypsin [10] = target: T2, porcine trypsin; experiment: as above
Procedure: as §1, §2

[11] = target: T3, factor VIIa-tissue factor complex …; experiment: as above
Procedure: as §1, §2

human plasmin [12] = target: T1, human plasmin; experiment: chromogenic amidolytic inhibition assay, plasmin; reference wild-type KD1
Procedure: as §1

T3 sequence (P08709 61-466 limits assumed, chain 1 of 2): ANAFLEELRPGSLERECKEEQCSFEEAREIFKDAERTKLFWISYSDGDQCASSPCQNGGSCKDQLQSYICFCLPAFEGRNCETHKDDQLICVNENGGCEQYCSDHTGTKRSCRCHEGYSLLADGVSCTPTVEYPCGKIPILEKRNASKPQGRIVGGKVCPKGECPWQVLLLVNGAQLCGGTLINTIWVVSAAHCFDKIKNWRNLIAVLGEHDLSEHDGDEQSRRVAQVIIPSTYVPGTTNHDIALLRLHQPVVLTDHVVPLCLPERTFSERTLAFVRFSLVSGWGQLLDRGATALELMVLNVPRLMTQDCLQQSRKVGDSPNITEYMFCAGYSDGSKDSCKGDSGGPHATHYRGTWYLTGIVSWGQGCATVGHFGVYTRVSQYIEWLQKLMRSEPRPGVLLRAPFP
T3 sequence (P13726 33-251 limits assumed, chain 2 of 2): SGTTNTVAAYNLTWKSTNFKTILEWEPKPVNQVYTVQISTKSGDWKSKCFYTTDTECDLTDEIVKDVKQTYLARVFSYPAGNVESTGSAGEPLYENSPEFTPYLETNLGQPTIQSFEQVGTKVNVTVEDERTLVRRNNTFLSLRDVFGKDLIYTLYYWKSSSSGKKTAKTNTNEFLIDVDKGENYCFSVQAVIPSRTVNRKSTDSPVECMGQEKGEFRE
T2 sequence (P00761 9-231 limits assumed): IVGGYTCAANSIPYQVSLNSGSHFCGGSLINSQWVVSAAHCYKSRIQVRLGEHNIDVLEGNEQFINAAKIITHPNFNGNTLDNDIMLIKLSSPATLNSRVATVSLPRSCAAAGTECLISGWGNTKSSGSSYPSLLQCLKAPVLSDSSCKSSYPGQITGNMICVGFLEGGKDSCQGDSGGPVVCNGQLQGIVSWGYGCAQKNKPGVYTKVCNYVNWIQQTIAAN
T1 sequence (P00747 97-810 limits assumed): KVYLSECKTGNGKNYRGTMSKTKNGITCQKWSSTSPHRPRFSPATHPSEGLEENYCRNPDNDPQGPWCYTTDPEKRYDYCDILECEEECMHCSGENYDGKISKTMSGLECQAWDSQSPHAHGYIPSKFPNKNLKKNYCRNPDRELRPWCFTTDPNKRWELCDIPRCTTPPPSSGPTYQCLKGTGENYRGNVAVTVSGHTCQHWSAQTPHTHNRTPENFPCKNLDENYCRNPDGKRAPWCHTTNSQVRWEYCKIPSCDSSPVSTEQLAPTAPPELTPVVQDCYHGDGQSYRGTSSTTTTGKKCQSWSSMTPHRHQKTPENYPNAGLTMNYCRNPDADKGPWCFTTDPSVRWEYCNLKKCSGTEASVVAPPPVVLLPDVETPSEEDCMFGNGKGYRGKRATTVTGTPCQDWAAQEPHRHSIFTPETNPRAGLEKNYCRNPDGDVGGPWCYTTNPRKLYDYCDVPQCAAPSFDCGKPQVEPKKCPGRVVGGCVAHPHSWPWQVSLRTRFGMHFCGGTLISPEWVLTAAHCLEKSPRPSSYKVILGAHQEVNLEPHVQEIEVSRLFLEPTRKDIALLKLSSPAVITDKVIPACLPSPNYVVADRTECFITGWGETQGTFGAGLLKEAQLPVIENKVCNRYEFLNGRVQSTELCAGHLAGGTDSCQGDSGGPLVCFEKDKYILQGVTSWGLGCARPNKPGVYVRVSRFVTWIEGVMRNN

Binder	Ki (human plasmin [1]) [nM]	Ki (porcine trypsin [2]) [nM]	Ki [3] [nM]	other results
wild-type first Kunitz-type domain (KD1) of human TFPI-2, His-tagged, E. coli (other, the monomer was purified; also called wild-type KD1; TFPI-2 KD1; not shown: N-terminal decahistidine-tag leader and enterokinase cleavage site from pET19b) DAAQEPTGNNAEICLLPLDYGPCRALLLRYYYDRYTQSCRQFLYGGCEGNANNFYTWEACDDACWRIEKVPKV	3	13	1640	fold higher Ki than BPTI (human plasmin [4]): ~3 fold; fold less potent than BPTI (porcine trypsin [5]): 2 fold; fold more potent than full-length TFPI-2 (human plasmin [6]): 3 fold; fold higher inhibitory activity than full-length TFPI-2 (porcine trypsin [7]): ~2 fold
G21D KD1 (other, Point mutant of His-tagged KD1, KD1 numbering; also called G21D (G12D); not shown: N-terminal decahistidine-tag leader and enterokinase cleavage site from pET19b) DAAQEPTGNNAEICLLPLDYDPCRALLLRYYYDRYTQSCRQFLYGGCEGNANNFYTWEACDDACWRIEKVPKV	59	42	26000	
R24Q KD1 (other, Point mutant of His-tagged KD1, KD1 numbering; also called R24Q (R15Q); not shown: N-terminal decahistidine-tag leader and enterokinase cleavage site from pET19b) DAAQEPTGNNAEICLLPLDYGPCQALLLRYYYDRYTQSCRQFLYGGCEGNANNFYTWEACDDACWRIEKVPKV	48	296	55700	
D19A KD1 (other, Point mutant of His-tagged KD1, KD1 numbering; also called D19A (D10A); not shown: N-terminal decahistidine-tag leader and enterokinase cleavage site from pET19b) DAAQEPTGNNAEICLLPLAYGPCRALLLRYYYDRYTQSCRQFLYGGCEGNANNFYTWEACDDACWRIEKVPKV	118	15	1960	fold loss of inhibitory activity (against wild-type KD1) (human plasmin [12]): ~40 fold
R29D KD1 (other, Point mutant of His-tagged KD1, KD1 numbering; also called R29D (R20D); not shown: N-terminal decahistidine-tag leader and enterokinase cleavage site from pET19b) DAAQEPTGNNAEICLLPLDYGPCRALLLDYYYDRYTQSCRQFLYGGCEGNANNFYTWEACDDACWRIEKVPKV	261	4600	44600	
F42A KD1 (other, Point mutant of His-tagged KD1, KD1 numbering; also called F42A (F33A); not shown: N-terminal decahistidine-tag leader and enterokinase cleavage site from pET19b) DAAQEPTGNNAEICLLPLDYGPCRALLLRYYYDRYTQSCRQALYGGCEGNANNFYTWEACDDACWRIEKVPKV	79	155	61200	

More lines, in order of falling Ki (human plasmin [1]), values ahead:

Ki (human plasmin [1]) [nM]	Ki (porcine trypsin [2]) [nM]	Ki [3] [nM]	Binder	other results
29	162	54000	L26Q KD1 (other, Point mutant of His-tagged KD1, KD1 numbering; also called L26Q (L17Q); not shown: N-terminal decahistidine-tag leader and enterokinase cleavage site from pET19b) DAAQEPTGNNAEICLLPLDYGPCRAQLLRYYYDRYTQSCRQFLYGGCEGNANNFYTWEACDDACWRIEKVPKV	fold reduction in inhibitory potency (against wild-type KD1) (human plasmin [9]): ≥ 10 fold; fold reduction in inhibitory potency (against wild-type KD1) (porcine trypsin [10]): ≥ 10 fold; fold reduction in inhibitory potency (against wild-type KD1) [11]: ≥ 10 fold
16	8	1350	Y20A KD1 (other, Point mutant of His-tagged KD1, KD1 numbering; also called Y20A (Y11A); not shown: N-terminal decahistidine-tag leader and enterokinase cleavage site from pET19b) DAAQEPTGNNAEICLLPLDAGPCRALLLRYYYDRYTQSCRQFLYGGCEGNANNFYTWEACDDACWRIEKVPKV	
12	52	3930	R29A KD1 (other, Point mutant of His-tagged KD1, KD1 numbering; also called R29A (R20A); not shown: N-terminal decahistidine-tag leader and enterokinase cleavage site from pET19b) DAAQEPTGNNAEICLLPLDYGPCRALLLAYYYDRYTQSCRQFLYGGCEGNANNFYTWEACDDACWRIEKVPKV	
9	21	1910	recombinant human tissue factor pathway inhibitor-2 (TFPI-2), full-length (other, Eukaryotically expressed recombinant full-length protein, described as a 213 amino acid polypeptide and prepared by a published method (Sprecher et al.); also called full-length TFPI-2; intact TFPI-2) DAAQEPTGNNAEICLLPLDYGPCRALLLRYYYDRYTQSCRQFLYGGCEGNANNFYTWEACDDACWRIEKVPKVCRLQVSVDDQCEGSTEKYFFNLSSMTCEKFFSGGCHRNRIENRFPDEATCMGFCAPKKIPSFCYSPKDEGLCSANVTRYYFNPRYRTCDAFTYTGCGGNDNNFVSREDCKRACAKALKKKKKMPKLRFASRIRKIRKKQF	
5	20	1120	R29K KD1 (other, Point mutant of His-tagged KD1, KD1 numbering; also called R29K (R20K); not shown: N-terminal decahistidine-tag leader and enterokinase cleavage site from pET19b) DAAQEPTGNNAEICLLPLDYGPCRALLLKYYYDRYTQSCRQFLYGGCEGNANNFYTWEACDDACWRIEKVPKV	
0.85	8	8550	R24K KD1 (other, also called R24K (R15K); R24K KD1 polypeptide; not shown: N-terminal extension from the expression vector) DAAQEPTGNNAEICLLPLDYGPCKALLLRYYYDRYTQSCRQFLYGGCEGNANNFYTWEACDDACWRIEKVPKV	fold reduction of inhibitory activity (against wild-type KD1) [8]: ~5 fold
